The text below walks through data of US20100239597A1.

As a reminder, the Kd is the constant that tells how readily two partners part at equilibrium.

Positions count from the first letter of the chain named.

Assay [1] concerns the target biotinylated ADDL (bADDL) (UniProt P05067). The assay can be described thus: BIACORE, bADDL as antigen; IgG1#1.
For assay [2], the target named is biotin-Aβ1-20 (UniProt P05067). The assay is described as follows: BIACORE, biotin-Aβ1-20 as antigen; IgG1#1. (In general: SPR reads the build-up and loss of mass on a sensor chip optically.)
Assay [3] has as its target biotin-Aβ1-20 (UniProt P05067). The assay can be described thus: BIACORE, biotin-Aβ1-20 as antigen; IgG1#2.
Assay [4] has as its target biotinylated ADDL (bADDL) (UniProt P05067). The assay is described as follows: BIACORE, bADDL as antigen; IgG1#2.

B1: 20C2-6B IgG1 (antibody, V domains shown)
VH: QVTLKESGPALVKPTQTLTLTCTLSGFSLSTSGMGVGWIRQPPGKALEWLAHIWWDDDKSYNPSLKSRLTISKDTSKNQVVLTMTNMDPVDTATYYCARRQLGLRSIDAMDYWGQGTTVTVSS
VL: DVVMTQSPLSLPVTPGEPASISCRSSQSILHSNGNTYLEWYLQKPGQSPQLLIYKVSNRFSGVPDRFSGSGSGTDFTLKISRVEAEDVGVYYCFQSSRVPLTFGQGTKLEIK
As to B1, the Kd (in assay [1]; with biotin-Aβ1-20 [2]) was 0.053 nM each time.

B2: 20C2-8B IgG1 (antibody, V domains shown)
VH: B1 VH
VL: B1 VL with F94L, S96T, S97T
On to B2, for which the Kd worked out at 0.013 nM in assay [1], 0.046 nM in the assay with biotin-Aβ1-20 [2], 0.064 nM with biotin-Aβ1-20 [3] and 0.0008 nM in assay [4].
